Publication doi:10.1101/2025.02.06.636884

Target: cytosolic fragment of the McpN chemoreceptor (Pseudomonas aeruginosa PAO1)
Assay: ITC

## CheV D238E (natural protein)
  KD of the first binding event (high affinity, endothermic): 8 nM
  KD of the second binding event (lower affinity, exothermic): 3000 nM
  N of the first binding event: 0.5
